T1: CEP1 (X at 6 and 12 = citrulline; biotin-conjugated for SPR and Luminex)
T1 construct: CKIHAXEIFDSXGNPTVECK; derived from alpha-enolase; also called CEPI; citrullinated alpha-enolase peptide
T1 peptide: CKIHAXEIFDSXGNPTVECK


Assays:
[1] = biological target: T1, CEP1; test: SPR (Biacore 2000), biotinylated CEP1 on a streptavidin chip, Fab as analyte up to about 3400 nM; plot of RU against concentration; REP1 channel as reference per the legend
Experimental: (§1) SPR sensorgrams of chimeric E4NG Fab fragment (A), E4 (B), F3(C), D10 (D), and B2 (E) binding to immobilized CEP1. Response Units (R.U.) reflect the value of subtracting […]. A series of analyte concentrations were tested. The binding of E4NG (F) and F3 (G) to citrullinated Histone2A peptide were analyzed in a similar way as shown in (A)-(E).
(§2) Surface plasmon resonance analysis. Binding of peptides to the given antibody was analyzed by SPR using a Biacore 2000 biosensor at 25° C. Briefly, the biotin-conjugated peptide was coupled to an […] by streptavidin binding. Then the Fab fragment or full-length antibody was diluted in PBS-P running buffer (20 mM phosphate buffer, 2.7 mM KCl, 137 mM NaCl and 0.05% Surfactant P20) and injected at in a series of concentrations. Data processing and analysis were performed using Biacore 2000 evaluation software.

[2] = biological target: T1, CEP1; test: SPR, CEP1 immobilised
Experimental: as §2

[3] = biological target: T1, CEP1; test: SPR (Biacore 2000), biotinylated CEP1 on a streptavidin chip, full antibody as analyte up to 200 nM; plot of RU against concentration; REP1 channel as reference per the legend; the legend says only E4, paragraph 117 ties the CEP1 Kd to E4NG
Experimental: as §1, §2

Row | Binder | Kd [1] | Kd [2] | Kd [3]
1 | chimeric E4NG Fab fragment (murine IgG2b constant region) (Fab, domain: constant region; Fab made with the ImmunoPure Fab Preparation Kit (papain); also called E4Fab; mE4Fab; not shown: part of the mouse IgG2b constant region (UniProtKB P01867) left in the Fab after cleavage) heavy: QVQLEESGPGLVRPSETLSLSCTVSGFPMSESYFWGWIRQSPGKGLEWLGSVIHTGTTYYRPSLESRLTIAMDPSKNQVSLSLTSVTVADSAMYYCVRIRGGSSNWLDPWGPGIVVTASS light: QSVWTQPPSVSAAPGQKVTISCSGDDSILRSAFVSWYQQVPGSAPKLVIFDDRQRPSGIPARFSGSNSGTTATLDIAGLQRGDEADYYCAAWNGRLSAFVFGSGTKLTVLGQPKSSPSVTLFPPSSEELETNKATLVCTITDFYPGVVTVDWKVDGTPVTQGMETTQPSKQSNNKYMASSYLTLTARAWERHSSYSCQVTHEGHTVEKSLSRADCS | 2300 nM |  | 
2 | chimeric E4NG (antibody, mouse IgG2b, domain: constant region; Human E4 variable regions on mouse IgG2b/lambda-1 constant regions; also called chimeric non-glycosylated (NG) E4; mE4; not shown: mouse IgG2b heavy chain constant region, UniProtKB P01867) heavy: QVQLEESGPGLVRPSETLSLSCTVSGFPMSESYFWGWIRQSPGKGLEWLGSVIHTGTTYYRPSLESRLTIAMDPSKNQVSLSLTSVTVADSAMYYCVRIRGGSSNWLDPWGPGIVVTASS light: QSVWTQPPSVSAAPGQKVTISCSGDDSILRSAFVSWYQQVPGSAPKLVIFDDRQRPSGIPARFSGSNSGTTATLDIAGLQRGDEADYYCAAWNGRLSAFVFGSGTKLTVLGQPKSSPSVTLFPPSSEELETNKATLVCTITDFYPGVVTVDWKVDGTPVTQGMETTQPSKQSNNKYMASSYLTLTARAWERHSSYSCQVTHEGHTVEKSLSRADCS |  | 0.25 nM | 250 nM

— patent publication US20200291133A1 (VACARA, published 2020)
